From paper PMC7228753 (Science Advances, 2020)

B1: IRF5-CPP1 (peptide)
peptide: Ac-IRLQISNPYLKFIPLKRAIWLIK-NH2

What was measured:
IRF5 [1] = biological target: T1, IRF5 (Homo sapiens, UniProt Q13568); type: cell-based
endogenous IRF5 = endogenous IRF5 (Homo sapiens, UniProt Q13568); type: cell-based
IRF5 [2] = biological target: T1, IRF5; type: cell-based; remark: listed apart in the source
IRF5 [3] = biological target: T1, IRF5; type: cell-based; remark: listed apart in the source
[4] = biological target: wild-type (WT) IRF5, tagged with either His or biotin at the C terminus (human); test: FRET or BRET
[5] = biological target: IRF5 [change], tagged with either His or biotin (human); test: FRET or BRET

Row | Molecule | effect on R848-induced IRF5 homodimerization (IRF5 [1]) | in-cell FRET signal with TRITC-IRF5 (endogenous IRF5) | inhibition of R848-induced IRF5 nuclear translocation in CD14+ monocytes (IRF5 [2]) | inhibition of R848-induced IRF5 nuclear translocation in CD19+ B cells (IRF5 [3]) | Kd [4] [µM] | IC50 [5] [µM]
1 | Ac-IKVMWPILFIIKLVHSDKKI-NH2 [IRF5-CPP8] | Neither of these two peptides inhibited | minimal FRET signal | neither peptide provided IRF5-specific inhibition | neither peptide provided IRF5-specific inhibition |  | 
2 | IRF5-CPP9: Negative control for IRF5-CPP5; lacks the IRF5-specific sequences (MANLGYWLLALFVTMWTDVGLCKKRPKP) | Neither of these two peptides inhibited | minimal FRET signal | neither peptide provided IRF5-specific inhibition | neither peptide provided IRF5-specific inhibition |  | 
3 | wild-type (WT) IRF5, tagged with either His or biotin at the C terminus (natural protein) |  |  |  |  | 4.21 | 
4 | B1 |  |  |  |  |  | > 75
